# From paper PMC3903132
# Molecular target: PSI^PsaJF, phage-mimetic photosystem I complex with the fused PsaJF subunit (one monomer of the trimer) (Synechocystis sp. PCC 6803) (UniProt P29254)
# Assay: crystal structure; PSI^PsaJF trimer purified from Synechocystis membranes, 3.8 Å, space group P21, three monomers in the asymmetric unit
substance,measurement,value
"PSI^PsaJF, phage-mimetic photosystem I complex with the fused PsaJF subunit (one monomer of the trimer) (from UniProt P29254 1-751; P29255 1-731; P32422 1-81; P19569 1-141; P12975 1-74; Q55329 1-40; P29256 84-165; Q55330 1-40; P72712 1-86; P37277 1-157; P72986 1-31)",stoichiometry N,3
